Experimental data reported in PMC9482650, “Quantitative fragmentomics allow affinity mapping of interactomes” (Nature Communications, 2022).

T1: LRRC7, Q96NW7
T1 sequence (Q96NW7 1440-1537, limits assumed, looked up): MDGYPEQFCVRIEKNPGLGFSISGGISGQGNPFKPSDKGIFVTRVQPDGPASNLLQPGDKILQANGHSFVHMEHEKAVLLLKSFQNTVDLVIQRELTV

T2: SNTG2, Q9NY99
T2 sequence (Q9NY99 68-166, limits assumed, looked up): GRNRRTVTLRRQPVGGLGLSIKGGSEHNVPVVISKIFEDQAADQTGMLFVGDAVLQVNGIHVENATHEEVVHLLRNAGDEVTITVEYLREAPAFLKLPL

T3: NHERF3_3, Q5T2W1
T3 sequence (Q5T2W1 238-333, limits assumed, looked up): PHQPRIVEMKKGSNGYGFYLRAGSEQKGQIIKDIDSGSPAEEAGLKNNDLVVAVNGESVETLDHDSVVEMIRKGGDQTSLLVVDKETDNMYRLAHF

T4: PARD3B_1, Q8TEW8
T4 sequence (Q8TEW8 196-299, limits assumed, looked up): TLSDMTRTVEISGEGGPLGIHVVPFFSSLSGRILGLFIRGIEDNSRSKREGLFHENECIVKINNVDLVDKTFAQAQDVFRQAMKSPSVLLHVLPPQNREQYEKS

T5: NHERF3_1, Q5T2W1
T5 sequence (Q5T2W1 4-100, limits assumed, looked up): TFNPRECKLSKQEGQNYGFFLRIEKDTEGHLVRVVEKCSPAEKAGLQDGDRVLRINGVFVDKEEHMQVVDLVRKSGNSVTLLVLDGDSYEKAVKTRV

T6: CARD11, Q9BXL7
T6 sequence (Q9BXL7 662-765, limits assumed, looked up): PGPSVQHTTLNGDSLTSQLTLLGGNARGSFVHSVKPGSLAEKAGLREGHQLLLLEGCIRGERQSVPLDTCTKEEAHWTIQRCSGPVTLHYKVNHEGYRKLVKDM

T7: MPP6, Q9NZW5
T7 sequence (Q9NZW5 125-219, limits assumed, looked up): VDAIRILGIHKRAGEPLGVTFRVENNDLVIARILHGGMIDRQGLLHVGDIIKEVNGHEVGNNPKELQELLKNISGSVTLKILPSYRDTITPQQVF

T8: SNTG1, Q9NSN8
T8 sequence (Q9NSN8 52-150, limits assumed, looked up): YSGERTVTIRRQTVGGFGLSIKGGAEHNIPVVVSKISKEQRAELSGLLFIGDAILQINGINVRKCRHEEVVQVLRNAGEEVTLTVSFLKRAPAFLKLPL

T9: APBA1_2, Q02410
T9 sequence (Q02410 742-832, limits assumed, looked up): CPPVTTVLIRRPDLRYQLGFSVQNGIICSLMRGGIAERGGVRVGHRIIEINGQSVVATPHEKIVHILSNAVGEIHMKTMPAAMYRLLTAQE


Target: LNX1_1, Q8TBB1
Test: holdup assay
Set-up: key: below the threshold = too weak to quantify, mostly under pKd 3.1 to 4
Conditions: plain residues with an end cap or a label only (N-terminal biotin on a linker: ado-ado)

Chain of LNX1_1, Q8TBB1 (Q8TBB1 261-371): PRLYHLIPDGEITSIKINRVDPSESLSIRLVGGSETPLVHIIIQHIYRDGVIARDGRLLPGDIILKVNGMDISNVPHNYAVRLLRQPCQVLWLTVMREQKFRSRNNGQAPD

pKd | Binder
4.48 | ADEMICITTL [CACNA1D, Q01668]

Target: SCRIB_3, Q14160
Test: holdup assay
Set-up: key: below the threshold = too weak to quantify, mostly under pKd 3.1 to 4
Conditions: plain residues with an end cap or a label only (N-terminal biotin on a linker: ado-ado)

Chain of SCRIB_3, Q14160 (Q14160 999-1103): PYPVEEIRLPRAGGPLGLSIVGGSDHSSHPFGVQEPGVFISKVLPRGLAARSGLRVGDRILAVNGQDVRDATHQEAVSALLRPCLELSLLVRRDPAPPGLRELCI

pKd | Binder
4.88 | ADEMICITTL [CACNA1D, Q01668]

Target: SCRIB_1, Q14160
Test: holdup assay
Set-up: key: below the threshold = too weak to quantify, mostly under pKd 3.1 to 4
Conditions: plain residues with an end cap or a label only (N-terminal biotin on a linker: ado-ado)

Chain of SCRIB_1, Q14160 (Q14160 718-814): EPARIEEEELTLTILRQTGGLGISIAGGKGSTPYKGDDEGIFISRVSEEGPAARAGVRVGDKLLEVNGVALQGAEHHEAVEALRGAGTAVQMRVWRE

pKd | Binder
4.89 | ADEMICITTL [CACNA1D, Q01668]

Target: TJP1_3, Q07157
Test: holdup assay
Set-up: key: below the threshold = too weak to quantify, mostly under pKd 3.1 to 4
Conditions: plain residues with an end cap or a label only (N-terminal biotin on a linker: ado-ado)

Chain of TJP1_3, Q07157 (Q07157 416-512): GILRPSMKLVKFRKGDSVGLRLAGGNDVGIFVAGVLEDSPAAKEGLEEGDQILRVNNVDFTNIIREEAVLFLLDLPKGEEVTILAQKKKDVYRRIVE

pKd | Binder
below the threshold | ADEMICITTL [CACNA1D, Q01668]

Target: AHNAK1, Q09666
Test: holdup assay
Set-up: key: below the threshold = too weak to quantify, mostly under pKd 3.1 to 4
Conditions: plain residues with an end cap or a label only (N-terminal biotin on a linker: ado-ado)

Chain of AHNAK1, Q09666 (Q09666 4-100): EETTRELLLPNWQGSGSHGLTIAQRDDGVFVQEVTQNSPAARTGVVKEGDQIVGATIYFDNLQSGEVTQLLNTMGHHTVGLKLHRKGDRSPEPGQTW

pKd | Binder
below the threshold | ADEMICITTL [CACNA1D, Q01668]

Target: LDB3, O75112
Test: holdup assay
Set-up: key: below the threshold = too weak to quantify, mostly under pKd 3.1 to 4
Conditions: plain residues with an end cap or a label only (N-terminal biotin on a linker: ado-ado)

Chain of LDB3, O75112 (O75112 1-94): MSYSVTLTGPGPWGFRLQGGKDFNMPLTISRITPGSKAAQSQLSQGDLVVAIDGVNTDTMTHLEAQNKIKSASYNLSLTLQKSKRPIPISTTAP

pKd | Binder
below the threshold | ADEMICITTL [CACNA1D, Q01668]

Target: T1, LRRC7, Q96NW7
Test: holdup assay
Set-up: key: below the threshold = too weak to quantify, mostly under pKd 3.1 to 4
Conditions: plain residues with an end cap or a label only (N-terminal biotin on a linker: ado-ado)

pKd | Binder
3.8 | ADEMICITTL [CACNA1D, Q01668]

Target: T2, SNTG2, Q9NY99
Test: holdup assay
Set-up: key: below the threshold = too weak to quantify, mostly under pKd 3.1 to 4
Conditions: plain residues with an end cap or a label only (N-terminal biotin on a linker: ado-ado)

pKd | Binder
4.47 | ADEMICITTL [CACNA1D, Q01668]

Target: DLG5_1, Q8TDM6
Test: holdup assay
Set-up: key: below the threshold = too weak to quantify, mostly under pKd 3.1 to 4
Conditions: plain residues with an end cap or a label only (N-terminal biotin on a linker: ado-ado)

Chain of DLG5_1, Q8TDM6 (Q8TDM6 617-713): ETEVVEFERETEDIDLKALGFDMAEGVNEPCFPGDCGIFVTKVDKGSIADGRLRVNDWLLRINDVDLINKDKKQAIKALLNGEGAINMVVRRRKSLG

pKd | Binder
below the threshold | ADEMICITTL [CACNA1D, Q01668]

Target: T3, NHERF3_3, Q5T2W1
Test: holdup assay
Set-up: key: below the threshold = too weak to quantify, mostly under pKd 3.1 to 4
Conditions: plain residues with an end cap or a label only (N-terminal biotin on a linker: ado-ado)

pKd | Binder
below the threshold | ADEMICITTL [CACNA1D, Q01668]

Target: IL16_1, Q14005
Test: holdup assay
Set-up: key: below the threshold = too weak to quantify, mostly under pKd 3.1 to 4
Conditions: plain residues with an end cap or a label only (N-terminal biotin on a linker: ado-ado)

Chain of IL16_1, Q14005 (Q14005 210-306): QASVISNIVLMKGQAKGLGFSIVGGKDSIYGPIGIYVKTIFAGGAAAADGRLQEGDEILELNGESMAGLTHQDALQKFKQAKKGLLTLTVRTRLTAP

pKd | Binder
below the threshold | ADEMICITTL [CACNA1D, Q01668]

Target: T4, PARD3B_1, Q8TEW8
Test: holdup assay
Set-up: key: below the threshold = too weak to quantify, mostly under pKd 3.1 to 4
Conditions: plain residues with an end cap or a label only (N-terminal biotin on a linker: ado-ado)

pKd | Binder
4.84 | ADEMICITTL [CACNA1D, Q01668]

Target: IL16_4, Q14005
Test: holdup assay
Set-up: key: below the threshold = too weak to quantify, mostly under pKd 3.1 to 4
Conditions: plain residues with an end cap or a label only (N-terminal biotin on a linker: ado-ado)

Chain of IL16_4, Q14005 (Q14005 1229-1329): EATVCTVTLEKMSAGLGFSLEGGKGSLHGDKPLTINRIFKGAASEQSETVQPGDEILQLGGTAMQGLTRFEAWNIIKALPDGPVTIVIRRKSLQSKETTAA

pKd | Binder
below the threshold | ADEMICITTL [CACNA1D, Q01668]

Target: Inadl_3, Q8NI35
Test: holdup assay
Set-up: key: below the threshold = too weak to quantify, mostly under pKd 3.1 to 4
Conditions: plain residues with an end cap or a label only (N-terminal biotin on a linker: ado-ado)

Chain of Inadl_3, Q8NI35 (Q8NI35 359-469): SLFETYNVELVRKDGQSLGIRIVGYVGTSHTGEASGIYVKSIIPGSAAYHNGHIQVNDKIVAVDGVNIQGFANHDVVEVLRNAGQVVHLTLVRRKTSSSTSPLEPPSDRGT

pKd | Binder
4.53 | ADEMICITTL [CACNA1D, Q01668]

Target: GRASP, Q7Z6J2
Test: holdup assay
Set-up: key: below the threshold = too weak to quantify, mostly under pKd 3.1 to 4
Conditions: plain residues with an end cap or a label only (N-terminal biotin on a linker: ado-ado)

Chain of GRASP, Q7Z6J2 (Q7Z6J2 96-193): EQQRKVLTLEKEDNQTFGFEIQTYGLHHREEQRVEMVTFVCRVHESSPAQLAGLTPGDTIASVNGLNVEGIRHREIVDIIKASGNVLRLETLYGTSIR

pKd | Binder
5.41 | ADEMICITTL [CACNA1D, Q01668]

Target: NHERF4_4, Q86UT5
Test: holdup assay
Set-up: key: below the threshold = too weak to quantify, mostly under pKd 3.1 to 4
Conditions: plain residues with an end cap or a label only (N-terminal biotin on a linker: ado-ado)

Chain of NHERF4_4, Q86UT5 (Q86UT5 464-550): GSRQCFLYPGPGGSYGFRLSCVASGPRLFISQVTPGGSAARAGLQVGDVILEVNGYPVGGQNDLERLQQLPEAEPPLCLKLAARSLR

pKd | Binder
3.73 | ADEMICITTL [CACNA1D, Q01668]

Target: DLG2_2, Q15700
Test: holdup assay
Set-up: key: below the threshold = too weak to quantify, mostly under pKd 3.1 to 4
Conditions: plain residues with an end cap or a label only (N-terminal biotin on a linker: ado-ado)

Chain of DLG2_2, Q15700 (Q15700 189-283): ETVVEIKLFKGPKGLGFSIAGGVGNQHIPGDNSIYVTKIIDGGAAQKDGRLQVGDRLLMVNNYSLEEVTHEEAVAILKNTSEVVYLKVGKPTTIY

pKd | Binder
3.81 | ADEMICITTL [CACNA1D, Q01668]

Target: MAGI2_3, Q86UL8
Test: holdup assay
Set-up: key: below the threshold = too weak to quantify, mostly under pKd 3.1 to 4
Conditions: plain residues with an end cap or a label only (N-terminal biotin on a linker: ado-ado)

Chain of MAGI2_3, Q86UL8 (Q86UL8 600-682): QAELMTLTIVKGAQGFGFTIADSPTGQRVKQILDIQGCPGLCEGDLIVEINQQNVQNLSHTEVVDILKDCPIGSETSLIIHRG

pKd | Binder
3.56 | ADEMICITTL [CACNA1D, Q01668]

Target: T5, NHERF3_1, Q5T2W1
Test: holdup assay
Set-up: key: below the threshold = too weak to quantify, mostly under pKd 3.1 to 4
Conditions: plain residues with an end cap or a label only (N-terminal biotin on a linker: ado-ado)

pKd | Binder
4.22 | ADEMICITTL [CACNA1D, Q01668]

Target: T6, CARD11, Q9BXL7
Test: holdup assay
Set-up: key: below the threshold = too weak to quantify, mostly under pKd 3.1 to 4
Conditions: plain residues with an end cap or a label only (N-terminal biotin on a linker: ado-ado)

pKd | Binder
below the threshold | ADEMICITTL [CACNA1D, Q01668]

Target: DLG1_3, Q12959
Test: holdup assay
Set-up: key: below the threshold = too weak to quantify, mostly under pKd 3.1 to 4
Conditions: plain residues with an end cap or a label only (N-terminal biotin on a linker: ado-ado)

Chain of DLG1_3, Q12959 (Q12959 457-571): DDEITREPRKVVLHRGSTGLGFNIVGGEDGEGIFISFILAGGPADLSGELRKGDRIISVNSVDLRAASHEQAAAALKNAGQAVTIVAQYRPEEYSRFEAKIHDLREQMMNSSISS

pKd | Binder
3.78 | ADEMICITTL [CACNA1D, Q01668]

Target: T7, MPP6, Q9NZW5
Test: holdup assay
Set-up: key: below the threshold = too weak to quantify, mostly under pKd 3.1 to 4
Conditions: plain residues with an end cap or a label only (N-terminal biotin on a linker: ado-ado)

pKd | Binder
below the threshold | ADEMICITTL [CACNA1D, Q01668]

Target: LIMK2, P53671
Test: holdup assay
Set-up: key: below the threshold = too weak to quantify, mostly under pKd 3.1 to 4
Conditions: plain residues with an end cap or a label only (N-terminal biotin on a linker: ado-ado)

Chain of LIMK2, P53671 (P53671 143-248): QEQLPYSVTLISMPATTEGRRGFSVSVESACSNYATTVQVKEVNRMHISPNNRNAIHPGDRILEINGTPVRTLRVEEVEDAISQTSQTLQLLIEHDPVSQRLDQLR

pKd | Binder
below the threshold | ADEMICITTL [CACNA1D, Q01668]

Target: GRIP2_6, Q9C0E4
Test: holdup assay
Set-up: key: below the threshold = too weak to quantify, mostly under pKd 3.1 to 4
Conditions: plain residues with an end cap or a label only (N-terminal biotin on a linker: ado-ado)

Chain of GRIP2_6, Q9C0E4 (Q9C0E4 648-740): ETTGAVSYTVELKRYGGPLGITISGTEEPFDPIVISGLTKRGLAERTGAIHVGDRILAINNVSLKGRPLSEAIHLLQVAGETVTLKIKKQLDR

pKd | Binder
below the threshold | ADEMICITTL [CACNA1D, Q01668]

Target: T8, SNTG1, Q9NSN8
Test: holdup assay
Set-up: key: below the threshold = too weak to quantify, mostly under pKd 3.1 to 4
Conditions: plain residues with an end cap or a label only (N-terminal biotin on a linker: ado-ado)

pKd | Binder
4.32 | ADEMICITTL [CACNA1D, Q01668]

Target: PICK1, Q9NRD5
Test: holdup assay
Set-up: key: below the threshold = too weak to quantify, mostly under pKd 3.1 to 4
Conditions: plain residues with an end cap or a label only (N-terminal biotin on a linker: ado-ado)

Chain of PICK1, Q9NRD5 (Q9NRD5 17-115): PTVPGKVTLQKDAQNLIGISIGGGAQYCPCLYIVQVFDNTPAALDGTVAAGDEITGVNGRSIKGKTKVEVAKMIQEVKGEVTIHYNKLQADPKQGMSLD

pKd | Binder
4.14 | ADEMICITTL [CACNA1D, Q01668]

Target: PTPN3, P26045
Test: holdup assay
Set-up: key: below the threshold = too weak to quantify, mostly under pKd 3.1 to 4
Conditions: plain residues with an end cap or a label only (N-terminal biotin on a linker: ado-ado)

Chain of PTPN3, P26045 (P26045 505-587): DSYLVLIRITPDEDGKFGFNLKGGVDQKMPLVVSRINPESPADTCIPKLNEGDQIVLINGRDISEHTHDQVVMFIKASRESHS

pKd | Binder
4.62 | ADEMICITTL [CACNA1D, Q01668]

Target: T9, APBA1_2, Q02410
Test: holdup assay
Set-up: key: below the threshold = too weak to quantify, mostly under pKd 3.1 to 4
Conditions: plain residues with an end cap or a label only (N-terminal biotin on a linker: ado-ado)

pKd | Binder
4.01 | ADEMICITTL [CACNA1D, Q01668]
